Key:
[1] = target: telomere target construct (TCON): HALO-tagged fusion of EGFP, CIB1 and TRF1 (UniProt Q8GY61); experiment: FRET or BRET; FLIM-FRET in live HeLa cells co-transfected with TCON and ECON; lifetime of EGFP (donor) with mCherry (acceptor); blue light 8 mW/cm^2 for 5 min (a similar response after 8 min at 1 mW/cm^2)
[2] = target: telomere target construct (TCON): HALO-tagged fusion of EGFP, CIB1 and TRF1 (UniProt Q8GY61)

- average fluorescence lifetime of EGFP (FRET donor on TCON) after 5 min of blue light [1]: 2.06 ns
- mean telomere length (TRF, Southern blot) of co-transfected HeLa cells exposed to blue light over three generations (5.3 Kb Gen-1 to 6.03 Kb Gen-3; without light 5.01 Kb to 4.6 Kb) [2]: 6.03 Kb
Substance: epigenetic effector construct (ECON): HALO-tagged fusion of DNMT3A, CRY2PHR and mCherry (from UniProt Q9Y6K1 1-912)

Source: publication PMC5226589
